Where two headings read alike, the source gives them in different places.
Tests used:
Test in all cases: MST
Mlh1;Pms1 [1] = target: T1, Mlh1;Pms1 (Saccharomyces cerevisiae (baker's …, UniProt P38920;P14242 1-769;1-873, |))
[2] = target: T2, Mlh1-FKBP464 (Complex #2 subunit);Pms1-FRB627 (Complex #2 subunit) (Saccharomyces cerevisiae (baker's …, UniProt P38920;P14242 1-464+=GS+P62942:2-108+=GS+465-769;1-627+=[…]+628-873, internal_change|internal_change)
[3] = target: T3, Mlh1-FRB355,FKBP464 (Complex #1 subunit);Pms1 (Saccharomyces cerevisiae (baker's …, UniProt P38920;P14242 1-355+=[…]+356-464+=GS+P62942:2-108+=GS+465-769;1-873, internal_change|)
Mlh1;Pms1 [4] = target: T1, Mlh1;Pms1; remark: listed apart in the source
[5] = target: T4, Mlh1-FRB355 (Complex #5 subunit);Pms1-FKBP460 (Complex #5 subunit) (Saccharomyces cerevisiae (baker's …, UniProt P38920;P14242 1-355+=[…]+356-769;1-460+=GS+P62942:2-108+=GS+461-873, internal_change|internal_change)
[6] = target: T2, Mlh1-FKBP464 (Complex #2 …); remark: listed apart in the source
[7] = target: T3, Mlh1-FRB355,FKBP464 (Complex #1 …); remark: listed apart in the source
Mlh1;Pms1 [8] = target: T1, Mlh1;Pms1; remark: listed apart in the source
[9] = target: T2, Mlh1-FKBP464 (Complex #2 …); remark: listed apart in the source
[10] = target: T3, Mlh1-FRB355,FKBP464 (Complex #1 …); remark: listed apart in the source
Mlh1;Pms1 [11] = target: T1, Mlh1;Pms1; remark: listed apart in the source
[12] = target: T4, Mlh1-FRB355 (Complex #5 …); remark: listed apart in the source
[13] = target: T2, Mlh1-FKBP464 (Complex #2 …); remark: listed apart in the source

B1: homoduplex AO4549/AO4548 (48-mer in Methods, called 49 bp in Results) (dsDNA)
DNA 1: CTGGACGGGTTAAGACCGAACGTGGCTCCAGAAACGGGTGCAACTGGG
DNA 2: CCCAGTTGCACCCGTTTCTGGAGCCACGTTCGGTCTTAACCCGTCCAG
Q: B1 was tested. Which Kd (Mlh1;Pms1 [1]) did it give?
A: Its Kd is 628 nM.

Q: And the Kd [2]?
A: Its Kd is 391 nM.

Q: What about the Kd [3] of the same binder?
A: Its Kd is 421 nM.

Q: And the Kd (Mlh1;Pms1 [4])?
A: Its Kd is 675 nM.

Q: What about the Kd [5] of the same binder?
A: The Kd was 556 nM.

Q: And the Kd [6]?
A: Its Kd is 431 nM.

Q: And the Kd [7]?
A: Its Kd is 198 nM.

Q: What about the Kd (Mlh1;Pms1 [8]) of the same binder?
A: The Kd was 173 nM.

Q: What about the Kd [9] of the same binder?
A: Its Kd is 211 nM.

Q: And the Kd [10]?
A: The Kd was 98.4 nM.

Q: What about the Kd (Mlh1;Pms1 [11]) of the same binder?
A: The Kd was 141 nM.

Q: What about the Kd [12] of the same binder?
A: The Kd was 287 nM.

Q: What about the Kd [13] of the same binder?
A: Its Kd is 207 nM.

Source: article PMC8450099
